The source of these data is patent US20170119790A1, “Agents, Uses and Methods” (CYTOGUIDE A/S, priority 2009, published 2017).

Experiment [1] has as its system non-transfected Flp-In CHO cells. As to the kind of experiment: Cellular binding and uptake of 125I-labeled anti-CD163, control cells. Format: cell-based, Chinese hamster. The note with it: 125I-labelled mAb. The text has this:
Endocytosis of ^125I-labeled anti-CD163 was investigated in CD163 transfected Flp-In Chinese hamster ovary (CHO) cells and mock-transfected Flp-In as described (Madsen, M., Moller, H. J., Nielsen, M. J., Jacobsen, C., Graversen, J. H., van den Berg, T. and Moestrup, S. K. (2004) Molecular characterization of the haptoglobin.hemoglobin receptor CD163. Ligand binding properties of the scavenger receptor cysteine-rich domain region. J. Biol. Chem., 279, 51561-51567.)

The target of experiment [2] is CD163 (Homo sapiens, UniProt Q86VB7). In words: Competition of binding to Mac2-158 epitope (SPR on Mac2-158 saturated CD163 chip). The note with it: 2 mM free calcium buffer, mAb 5 μg/ml. The method, then:
To evaluate if there is competition in the binding of a range of mAbs to CD163 we first saturated the CD163-chip with Mac2-158 by injecting 50 μL of 50 μg/ml Mac2-158 and subsequently injecting relevant mAbs in 5 μg/ml. The binding buffer was CaHBS 10 mM Hepes, 150 mM NaCl, 3.0 mM CaCl2, 1.0 mM EGTA, and 0.005% Tween 20, pH 7.4.

The target of experiment [3] is T1, mouse CD163 1-5 wt (Mus musculus, UniProt Q2VLH6).
T1 construct: CD163 domain 1-5 was used for expression of mouse CD163 domain 1-5/V5/His; made in house; host or cells: Lenti-X 293T, transient; captured from supernatant on Ni-NTA
T1 sequence (Q2VLH6 with tags, fused parts or gaps): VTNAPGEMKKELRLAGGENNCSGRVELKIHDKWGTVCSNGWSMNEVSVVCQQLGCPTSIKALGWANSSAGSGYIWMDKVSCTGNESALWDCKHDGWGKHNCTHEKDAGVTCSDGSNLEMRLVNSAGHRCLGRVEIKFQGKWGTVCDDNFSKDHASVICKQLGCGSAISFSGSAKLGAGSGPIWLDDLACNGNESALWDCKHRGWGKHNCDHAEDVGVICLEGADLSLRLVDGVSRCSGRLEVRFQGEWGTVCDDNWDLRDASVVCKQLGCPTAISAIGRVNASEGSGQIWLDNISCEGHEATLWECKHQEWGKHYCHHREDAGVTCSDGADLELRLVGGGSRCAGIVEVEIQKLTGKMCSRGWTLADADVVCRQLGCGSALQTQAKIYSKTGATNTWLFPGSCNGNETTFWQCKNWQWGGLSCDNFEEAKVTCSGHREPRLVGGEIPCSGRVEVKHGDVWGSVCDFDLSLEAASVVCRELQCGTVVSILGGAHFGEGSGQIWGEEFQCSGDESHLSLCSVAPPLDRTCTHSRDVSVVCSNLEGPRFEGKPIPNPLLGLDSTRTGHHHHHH
As to the kind of experiment: Western blotting of mouse CD163 and knock in mutant. Format: binding. Here is the method:
The mouse CD163 1-5 and the mouse CD163 domain 1 mutant were expressed transient in Lenti-X 293T cells as follows: 1.5 μg of the DNA was diluted in OptiCHOPro SFM (8 mM L-glutamine) to a total volume of 50 μl The DNA was gently mixed with 50 μl of OptiCHOPro SFM containing 1.5 μl Freestyle MAX transfection reagent (Invitrogen, Taastrup, Denmark). After 10 min of incubation at room temperature the complexes were added to 1×10^6 cells in 1 ml. Three days later, the cell supernatants were harvested by centrifugation.
Tris pH 8 buffer, and cell culture supernatants were added 60 μl of Ni-NTA His-bind resin slurry. After 1 hour shaking at 4° C. the supernatants were aspired and each of the purifications were eluted with 90 μl 50 mM Tris pH 8, 25 mM EDTA buffer.
90 μl of each of the eluates were added 30 μl of 4×LDS sample buffer. 20 μl samples of each supernatant and 8 μl SeeBlue plus2 prestained marker were loaded on NuPage 4-12% Bis-Tris-Gels (Invitrogen, Taastrup, Denmark) and the SDS-PAGEs were run with MOPS running buffer according to instructions of the manufacturer (200 V constant for 50 min). Blotting to PVDF membranes (Invitrogen, Taastrup, Denmark) was done on an iBLOT device according to instructions of the manufacturer. After blotting the membranes were washed briefly in 1×PBS 0.1% Tween and blocked for 30 min in 1×PBS 2% Tween at room temperature with shaking. […]
(In western blotting, separated proteins are transferred to a membrane and probed.)

Experiment [4] deals with TNF production of pro-inflammatory macrophages. In words: Inhibition of LPS induction of TNF production in in vitro matured pro-inflammatory macrophages. Format: cell-based, human. Conditions: compared with free dexamethasone / buffer, FIG. 30-31. Here is the method: Monocytes were obtained from MNC after isolation using Dynal Monocyte Negative
Monocytes were resuspended in RMPI 1640 medium (Sigma-Aldrich, Brøndby, Denmark) containing 20% fetal calf serum (FCS) supplemented with 100 ng/ml M-CSF (GenScript Corporation, New Jersey, USA) and penicillin/streptomycin (pen/strep) for 7 days. The first 3 days in Tissue Culture Flasks at 37° C. and 5% CO2. The monocytes were then detached from the flask by flushing and scraping. The monocytes were divided into smaller portions and further grown for four days. 0.9×10^5 cells per well were grown in 96 well tissue culture plates for TNF CBA use.
Subsequently, the macrophages were activated in RMPI 1640 containing 5% FCS, 1 ug/ml lipopolysaccaride (LPS) (Sigma-Aldrich, Brøndby, Denmark) and 20 ng/ml INF-gamma (Genscript Corporation, New Jersey, USA) for 18 hours making them pro-inflammatory.
The pro-inflammatory macrophages were stimulated with RMPI160, 5% FCS, 1 ug/ml LPS and 20 ng/ml INF-gamma containing either dexamethasone, Ab-dexamethasone or no drug.
To detect the change in soluble TNF-alpha concentration we used the Cytometry Bead Array Kit (BD Biosciences, New Jersey, USA). The media from the in vitro stimulated macrophages (described earlier) grown in 96 well tissue culture plates were analyzed according to the manufacturer's protocol.

Sequence of CD163 (Q86VB7 42-1156): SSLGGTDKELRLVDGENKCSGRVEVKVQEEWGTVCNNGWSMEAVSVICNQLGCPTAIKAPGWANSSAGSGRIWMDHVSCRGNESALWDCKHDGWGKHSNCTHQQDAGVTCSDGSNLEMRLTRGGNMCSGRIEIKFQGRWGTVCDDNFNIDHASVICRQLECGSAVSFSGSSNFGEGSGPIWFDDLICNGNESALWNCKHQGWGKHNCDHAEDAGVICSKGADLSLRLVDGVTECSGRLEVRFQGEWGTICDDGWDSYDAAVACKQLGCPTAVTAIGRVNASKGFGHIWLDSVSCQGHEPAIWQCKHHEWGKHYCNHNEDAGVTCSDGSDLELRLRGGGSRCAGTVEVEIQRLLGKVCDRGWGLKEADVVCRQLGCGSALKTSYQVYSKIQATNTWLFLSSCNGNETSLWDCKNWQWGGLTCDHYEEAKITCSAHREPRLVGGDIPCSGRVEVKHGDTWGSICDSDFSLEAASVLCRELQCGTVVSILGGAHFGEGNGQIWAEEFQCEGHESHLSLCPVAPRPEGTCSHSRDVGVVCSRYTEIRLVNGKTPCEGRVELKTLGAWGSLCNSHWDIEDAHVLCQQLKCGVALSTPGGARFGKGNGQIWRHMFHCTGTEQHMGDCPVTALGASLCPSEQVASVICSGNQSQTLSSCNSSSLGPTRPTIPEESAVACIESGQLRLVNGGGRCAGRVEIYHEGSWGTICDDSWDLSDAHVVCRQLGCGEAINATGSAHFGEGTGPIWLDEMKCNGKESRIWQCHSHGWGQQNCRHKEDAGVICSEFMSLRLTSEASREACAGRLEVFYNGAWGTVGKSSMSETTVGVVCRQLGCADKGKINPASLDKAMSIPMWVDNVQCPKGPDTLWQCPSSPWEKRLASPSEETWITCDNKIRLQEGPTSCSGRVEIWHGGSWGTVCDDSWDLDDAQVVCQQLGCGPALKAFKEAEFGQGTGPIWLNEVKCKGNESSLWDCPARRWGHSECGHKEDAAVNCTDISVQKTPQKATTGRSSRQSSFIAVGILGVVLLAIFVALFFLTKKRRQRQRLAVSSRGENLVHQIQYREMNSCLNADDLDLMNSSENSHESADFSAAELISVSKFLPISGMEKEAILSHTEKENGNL

B1: MAC2-158: anti-human CD163 murine mAb, binds SRCR domain 1, IQ Products; VH SEQ ID NO: 1, VL SEQ ID NO: 2 (antibody, V domains shown)
VH: DVQLQESGPGLVKPSQSLSLTCTVTGYSITSDYAWNWIRQFPGNKLEWMGYITYSGITNYNPSLKSQISITRDTSKNQFFLQLNSVTTEDTATYYCVSGTYYFDYWGQGTTLTVSS
VL: SVVMTQTPKSLLISIGDRVTITCKASQSVSSDVAWFQQKPGQSPKPLIYYASNRYTGVPDRFTGSGYGTDFTFTISSVQAEDLAVYFCGQDYTSPRTFGGGTKLEIKRA
modifications: Mac2-158 VH; Mac2-158 VL
As to B1, the “percentage of cell-associated radioactivity reached” value in experiment [1] was 1.37%. Besides, in experiment [2], the “binding to CD163-Fc saturated with Mac2-158” value is reported as “not able to bind”. Besides, the “binding in western blot” value in experiment [3] is given as “did not bind”. In addition, the “effect on TNF production of macrophages” value in experiment [4] is “no effect different from buffer”.
